From PMC12016152

Legend:
[1] = whole-cell patch clamp, pH 5.0 peak current density, CHO; conditions: glycan lost; control: ASIC1a + ASIC4WT
[2] = surface biotinylation, western blot, CHO (n = 2); conditions: glycan lost; control: ASIC1a + ASIC4WT
[3] = amygdala cell surface fraction, western blot, Asic4-/- mice; conditions: glycan lost; control: AAV-DIO-ASIC4WT rescue

B1: ASIC4: ASIC4N376A (protein)
parent chain: MPIEIVCKIKFAEEDAKPKEKEAGDEQSLLGAAQGPAAPRDLATFASTSTLHGLGRACGPGPHGLRRTLWALALLTSLAAFLYQAASLARGYLTRPHLVAMDPAAPAPVAGFPAVTLCNINRFRHSALSDADIFHLANLTGLPPKDRDGHRAAGLRYPEPDMVDILNRTGHQLADMLKSCNFSGHHCSASNFSVVYTRYGKCYTFNADPQSSLPSRAGGMGSGLEIMLDIQQEEYLPIWRETNETSFEAGIRVQIHSQEEPPYIHQLGFGVSPGFQTFVSCQEQRLTYLPQPWGNCRAESELREPELQGYSAYSVSACRLRCEKEAVLQRCHCRMVHMPGNETICPPNIYIECADHTLDSLGGGSEGPCFCPTPCNLTRYGKEISMVKIPNRGSARYLARKYNRNETYIRENFLVLDVFFEALTSEAMEQQAAYGLSALLGDLGGQMGLFIGASILTLLEILDYIYEVSWDRLKRVWRRPKTPLRTSTGGISTLGLQELKEQSPCPSRGRAEGGGASSLLPNHHHPHGPPGSLFEDFAC
other: channel current of co-expressed ASIC1a [1]: no change
other: surface expression of co-expressed ASIC1a [2]: no change

B2: ASIC4: ASIC4N191A (protein)
parent chain: MPIEIVCKIKFAEEDAKPKEKEAGDEQSLLGAAQGPAAPRDLATFASTSTLHGLGRACGPGPHGLRRTLWALALLTSLAAFLYQAASLARGYLTRPHLVAMDPAAPAPVAGFPAVTLCNINRFRHSALSDADIFHLANLTGLPPKDRDGHRAAGLRYPEPDMVDILNRTGHQLADMLKSCNFSGHHCSASNFSVVYTRYGKCYTFNADPQSSLPSRAGGMGSGLEIMLDIQQEEYLPIWRETNETSFEAGIRVQIHSQEEPPYIHQLGFGVSPGFQTFVSCQEQRLTYLPQPWGNCRAESELREPELQGYSAYSVSACRLRCEKEAVLQRCHCRMVHMPGNETICPPNIYIECADHTLDSLGGGSEGPCFCPTPCNLTRYGKEISMVKIPNRGSARYLARKYNRNETYIRENFLVLDVFFEALTSEAMEQQAAYGLSALLGDLGGQMGLFIGASILTLLEILDYIYEVSWDRLKRVWRRPKTPLRTSTGGISTLGLQELKEQSPCPSRGRAEGGGASSLLPNHHHPHGPPGSLFEDFAC
other: channel current of co-expressed ASIC1a [1]: increases
other: surface expression of ASIC1a in vivo [3]: increases
other: surface expression of co-expressed ASIC1a [2]: increases

B3: ASIC4: ASIC4N191A, N243A, N341A, N376A (protein)
parent chain: MPIEIVCKIKFAEEDAKPKEKEAGDEQSLLGAAQGPAAPRDLATFASTSTLHGLGRACGPGPHGLRRTLWALALLTSLAAFLYQAASLARGYLTRPHLVAMDPAAPAPVAGFPAVTLCNINRFRHSALSDADIFHLANLTGLPPKDRDGHRAAGLRYPEPDMVDILNRTGHQLADMLKSCNFSGHHCSASNFSVVYTRYGKCYTFNADPQSSLPSRAGGMGSGLEIMLDIQQEEYLPIWRETNETSFEAGIRVQIHSQEEPPYIHQLGFGVSPGFQTFVSCQEQRLTYLPQPWGNCRAESELREPELQGYSAYSVSACRLRCEKEAVLQRCHCRMVHMPGNETICPPNIYIECADHTLDSLGGGSEGPCFCPTPCNLTRYGKEISMVKIPNRGSARYLARKYNRNETYIRENFLVLDVFFEALTSEAMEQQAAYGLSALLGDLGGQMGLFIGASILTLLEILDYIYEVSWDRLKRVWRRPKTPLRTSTGGISTLGLQELKEQSPCPSRGRAEGGGASSLLPNHHHPHGPPGSLFEDFAC
other: channel current of co-expressed ASIC1a [1]: increases
other: surface expression of co-expressed ASIC1a [2]: increases

B4: ASIC4: ASIC4N243A (protein)
parent chain: MPIEIVCKIKFAEEDAKPKEKEAGDEQSLLGAAQGPAAPRDLATFASTSTLHGLGRACGPGPHGLRRTLWALALLTSLAAFLYQAASLARGYLTRPHLVAMDPAAPAPVAGFPAVTLCNINRFRHSALSDADIFHLANLTGLPPKDRDGHRAAGLRYPEPDMVDILNRTGHQLADMLKSCNFSGHHCSASNFSVVYTRYGKCYTFNADPQSSLPSRAGGMGSGLEIMLDIQQEEYLPIWRETNETSFEAGIRVQIHSQEEPPYIHQLGFGVSPGFQTFVSCQEQRLTYLPQPWGNCRAESELREPELQGYSAYSVSACRLRCEKEAVLQRCHCRMVHMPGNETICPPNIYIECADHTLDSLGGGSEGPCFCPTPCNLTRYGKEISMVKIPNRGSARYLARKYNRNETYIRENFLVLDVFFEALTSEAMEQQAAYGLSALLGDLGGQMGLFIGASILTLLEILDYIYEVSWDRLKRVWRRPKTPLRTSTGGISTLGLQELKEQSPCPSRGRAEGGGASSLLPNHHHPHGPPGSLFEDFAC
other: channel current of co-expressed ASIC1a [1]: no change
other: surface expression of ASIC1a in vivo [3]: no change
other: surface expression of co-expressed ASIC1a [2]: no change

B5: ASIC4: ASIC4N341A (protein)
parent chain: MPIEIVCKIKFAEEDAKPKEKEAGDEQSLLGAAQGPAAPRDLATFASTSTLHGLGRACGPGPHGLRRTLWALALLTSLAAFLYQAASLARGYLTRPHLVAMDPAAPAPVAGFPAVTLCNINRFRHSALSDADIFHLANLTGLPPKDRDGHRAAGLRYPEPDMVDILNRTGHQLADMLKSCNFSGHHCSASNFSVVYTRYGKCYTFNADPQSSLPSRAGGMGSGLEIMLDIQQEEYLPIWRETNETSFEAGIRVQIHSQEEPPYIHQLGFGVSPGFQTFVSCQEQRLTYLPQPWGNCRAESELREPELQGYSAYSVSACRLRCEKEAVLQRCHCRMVHMPGNETICPPNIYIECADHTLDSLGGGSEGPCFCPTPCNLTRYGKEISMVKIPNRGSARYLARKYNRNETYIRENFLVLDVFFEALTSEAMEQQAAYGLSALLGDLGGQMGLFIGASILTLLEILDYIYEVSWDRLKRVWRRPKTPLRTSTGGISTLGLQELKEQSPCPSRGRAEGGGASSLLPNHHHPHGPPGSLFEDFAC
other: channel current of co-expressed ASIC1a [1]: increases
other: surface expression of co-expressed ASIC1a [2]: increases
